B1: THAP1; numbered along this chain (parent)
chain: MVQSCSAYGCKNRYDKDKPVSFHKFPLTRPSLCKEWEAAVRRKNFKPTKYSSICSEHFTPDCFKRECNNKLLKENAVPTIFLCTEPHDKKEDLLEPQEQLPPPPLPPPVSQVDAAIGLLMPPLQTPVNLSVFCDHNYTVEDTMHQRKRIHQLEQQVEKLRKKLKTAQQRCRRQERQLEKLKEVVHFQKEKDDVSERGYVILPNDYFEIVEVPA

Variants of: B1
Assay: THAP1 transcriptional activity (GFP+/GFP- enrichment relative to wild-type constructs) (ratio to WT); higher = more THAP1 activity (PSMB5 reporter activation)
Settings: with PSMB5 promoter-GFP reporter
Procedure, shortened: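 Variants were counted by Illumina sequencing of genomic DNA amplicons from BFP+ cells sorted into GFP-bright and GFP-dim bins five days after lentiviral transduction, in duplicate at MOI ~0.3. The library changed each of residues 2–213 of human THAP1 to all 20 amino acids and was introduced into THAP1-knockout HEK-293T cells with mClover3 knocked in at endogenous PSMB5. Activity equals the replicate-mean bright/dim read fold change over the mean of wild-type synonymous constructs.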

THAP1 transcriptional activity of substitutions, site by site:
Q124: N 0.579; P 0.631; R 0.787; S 0.576; T 0.351; V 0.643; W 0.257; Y 0.592
T125: A 1.2; C 0.57; D 0.713; E 1.1; F 0.212; G 0.666; H 0.515; I 0.437; K 1.4; L 0.291; M 0.329; N 0.786; P 0.865; Q 0.85; R 0.432; S 0.95; V 0.325; W 0.351; Y 0.322
P126: A 0.618; C 0.294; D 1.02; E 0.744; F 0.178; G 0.386; H 0.531; I 0.18; K 0.562; L 0.216; N 0.551; Q 0.962; R 0.51; S 1.11; T 0.484; V 0.434; W 0.207; Y 0.194
V127: A 0.82; C 0.636; D 0.851; E 0.897; F 0.642; G 0.609; H 0.843; I 0.501; K 1.64; L 0.775; M 0.396; N 0.997; P 0.879; Q 1.02; R 1.19; S 1.39; T 0.875; W 0.336; Y 0.411
N128: A 0.714; C 0.306; D 0.549; E 0.856; F 0.259; G 0.685; H 0.446; I 0.201; K 0.645; L 0.284; M 0.264; P 0.417; Q 0.507; R 0.823; S 0.395; T 0.494; V 0.346; W 0.283; Y 0.306
L129: A 0.855; C 0.646; D 0.405; E 0.516; F 1.16; G 0.706; H 1; I 1.12; K 1.95; M 0.714; N 1.4; P 0.79; Q 0.659; R 1.86; S 1.2; T 1.05; V 0.92; W 1.7; Y 0.843
S130: A 0.566; C 0.265; D 0.555; E 0.224; F 0.246; G 0.946; H 0.517; I 0.104; K 0.625; L 0.324; M 0.164; N 0.651; P 0.611; Q 0.656; R 0.271; T 0.436; V 0.196; W 0.276; Y 0.1
V131: A 0.451; C 0.427; D 0.241; E 0.239; F 0.399; G 0.244; H 0.401; I 0.81; K 0.299; L 0.533; M 0.291; N 0.494; P 0.75; Q 0.386; R 0.367; S 0.28; T 0.276; W 0.261; Y 0.27
F132: A 0.892; C 0.597; D 0.363; E 0.425; G 0.49; H 1.03; I 0.806; K 1; L 1.12; M 1.06; N 0.635; P 0.285; Q 0.462; R 0.942; S 0.452; T 0.436; V 0.402; W 0.329; Y 0.392
C133: A 0.667; D 0.73; E 0.936; F 0.613; G 0.883; H 2.5; I 1.29; K 1.7

— the supplement of paper PMC11811203
